Biological target: Tetanus neurotoxin (Clostridium tetani, UniProt P04958)
Assay: cryo-EM structure; epitopes of TT104 and TT110 on TeNT determined via cryo-EM
Conditions: both partners purified

Chain of Tetanus neurotoxin (P04958 whole entry): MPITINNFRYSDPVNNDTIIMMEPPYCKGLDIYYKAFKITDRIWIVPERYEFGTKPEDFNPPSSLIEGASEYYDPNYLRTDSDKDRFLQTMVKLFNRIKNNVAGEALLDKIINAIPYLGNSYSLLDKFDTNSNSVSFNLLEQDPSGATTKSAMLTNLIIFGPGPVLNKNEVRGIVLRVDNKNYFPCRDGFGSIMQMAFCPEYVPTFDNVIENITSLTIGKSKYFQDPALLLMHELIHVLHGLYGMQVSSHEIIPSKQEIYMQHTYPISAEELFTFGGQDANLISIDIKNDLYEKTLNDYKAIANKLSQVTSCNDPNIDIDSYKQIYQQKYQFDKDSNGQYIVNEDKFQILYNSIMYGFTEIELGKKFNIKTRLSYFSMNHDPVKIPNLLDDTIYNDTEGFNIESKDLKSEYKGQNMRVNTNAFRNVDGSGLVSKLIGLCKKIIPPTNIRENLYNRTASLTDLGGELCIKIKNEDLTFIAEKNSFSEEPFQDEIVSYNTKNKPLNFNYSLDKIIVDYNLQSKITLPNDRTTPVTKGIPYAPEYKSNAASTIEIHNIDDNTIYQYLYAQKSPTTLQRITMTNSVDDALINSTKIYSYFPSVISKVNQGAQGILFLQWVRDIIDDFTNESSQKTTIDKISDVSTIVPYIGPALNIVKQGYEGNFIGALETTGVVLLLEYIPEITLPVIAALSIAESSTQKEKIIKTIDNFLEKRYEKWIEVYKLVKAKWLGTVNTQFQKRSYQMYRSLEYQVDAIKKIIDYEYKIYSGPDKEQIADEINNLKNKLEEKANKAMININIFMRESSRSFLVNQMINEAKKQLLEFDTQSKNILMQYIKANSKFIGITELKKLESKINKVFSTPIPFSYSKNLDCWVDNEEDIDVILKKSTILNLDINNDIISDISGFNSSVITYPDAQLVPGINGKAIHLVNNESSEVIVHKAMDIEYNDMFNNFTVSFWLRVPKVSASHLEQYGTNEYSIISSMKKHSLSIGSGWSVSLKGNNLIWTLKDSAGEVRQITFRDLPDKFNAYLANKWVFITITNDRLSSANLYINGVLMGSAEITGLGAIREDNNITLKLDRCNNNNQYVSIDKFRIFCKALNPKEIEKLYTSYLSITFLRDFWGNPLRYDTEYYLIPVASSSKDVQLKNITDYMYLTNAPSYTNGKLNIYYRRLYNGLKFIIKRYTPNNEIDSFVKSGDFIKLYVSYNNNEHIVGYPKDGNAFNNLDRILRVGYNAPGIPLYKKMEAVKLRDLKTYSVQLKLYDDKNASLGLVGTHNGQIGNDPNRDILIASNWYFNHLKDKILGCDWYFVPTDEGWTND

B1: TT110 human monoclonal antibody (antibody, V domains shown)
VH: QVQLMQSGAEVQKPGASVKVSCQASGFTLNNYYIHWLRQAPGQGFEWMGIFNPSSGTRTYAQKFQGRISMTADASTTTLYMELSGLTSEDAGVYFCARIGGSTYGRLMTYYFDHWGQGTVVAVSS
VL: EVVLTQSPVTLSVSPGGRGTLSCRASRSISTTLAWYQQKPGQAPRLLIYGASTRATGIPARFTGSGSGTEFTLTISSLQSEDFAVYYCQQYNDWPVTFGQGTQVEVK
notes: also called humAb TT110
B1: binds.

B2: TT104 human monoclonal antibody (antibody, V domains shown)
VH: QLQLQESGPGLVRPSETLSLTCSVSDDSMGSSTYYWAWIRQPPGKGLEWIGNVYYNGVTYYNSSLESRLTLSIDPSKNQFSLILSSVTAADTAVYYCARQADNWFDPWGQGTLVTVSS
VL: EIMMTQSPATLSVSPGERATLSCRASQSVGSDLAWYQQKPGQAPRLLIYGASYRATGIPARFSGGGSGTEFTLTISSMQSEDFAVYYCQQYYNWPPYTFGQGTKVEIK
notes: also called humAb TT104
B2: binds.
